{"source": "paper PMC2965851", "about": "(Chemistry & biology, 2008)", "proteins": {"B1": {"name": "N-(His)10-tagged CalG3 (native) (enzyme, Micromonospora echinospora, UniProt Q8KND7 1-376, looked up)", "chain": "MLFVSSPGIGHLFPLIQLAWGFRTAGHDVLIAVAEHADRAAAAGLEVVDVAPDYSAVKVFEQVAKDNPRFAETVATRPAIDLEEWGVQIAAVNRPLVDGTMALVDDYRPDLVVYEQGATVGLLAADRAGVPAVQRNQSAWRTRGMHRSIASFLTDLMDKHQVSLPEPVATIESFPPSLLLEAEPEGWFMRWVPYGGGAVLGDRLPPVPARPEVAITMGTIELQAFGIGAVEPIIAAAGEVDADFVLALGDLDISPLGTLPRNVRAVGWTPLHTLLRTCTAVVHHGGGGTVMTAIDAGIPQLLAPDPRDQFQHTAREAVSRRGIGLVSTSDKVDADLLRRLIGDESLRTAAREVREEMVALPTPAETVRRIVERISG"}}, "target": "the molecule itself", "assay": "crystal structure", "data": [{"protein": "B1", "values": [{"measurement": "stoichiometry N", "result": 2}]}]}
